± gives the uncertainty stated by the source.
B1: Chromodomain-helicase-DNA-binding protein 5, residues 338 to 390; numbered along this chain, Q8TDI0 (parent)
chain: YETDHQDYCEVCQQGGEIILCDTCPRAYHLVCLDPELEKAPEGKWSCPHCEKE

Variants of: B1
Assay: abundance fitness (aPCA) (normalised: wild type 0, dead -1); higher = more abundant; growth selection in yeast, the domain comes from the species named
Details: Homo sapiens

Compared with K39M, K39C is lower in abundance fitness: 0.191 ± 0.2 for the first, -0.358 ± 0.21 for the second.

K39A and K39T are within error of each other in abundance fitness: -0.081 ± 0.11 for the first, -0.029 ± 0.18 for the second.

K39Y and K39P are within error of each other in abundance fitness: -0.278 ± 0.2 for the first, -0.091 ± 0.19 for the second.

K39W and K39F are within error of each other in abundance fitness: -0.242 ± 0.18 for the first, -0.315 ± 0.23 for the second.

K39D and K39Q are within error of each other in abundance fitness: -0.208 ± 0.15 for the first, -0.232 ± 0.3 for the second.

K39I and K39V are within error of each other in abundance fitness: -0.045 ± 0.24 for the first, -0.189 ± 0.11 for the second.

K39L and K39G are within error of each other in abundance fitness: -0.002 ± 0.14 for the first, 0.03 ± 0.089 for the second.

K39E and K39S are within error of each other in abundance fitness: -0.096 ± 0.13 for the first, -0.251 ± 0.15 for the second.

H49G and H49Q are within error of each other in abundance fitness: 0.071 ± 0.16 for the first, 0.032 ± 0.23 for the second.

First: H49A
Second: H49V
The abundance fitness of the first is higher: -0.011 ± 0.2 for the first, -0.45 ± 0.18 for the second.

First: H49K
Second: H49W
The abundance fitness of the first is higher: 0.041 ± 0.41 for the first, -0.69 ± 0.3 for the second.

H49R and H49Y are within error of each other in abundance fitness: -0.291 ± 0.16 for the first, -0.042 ± 0.2 for the second.

H49S and H49N are within error of each other in abundance fitness: -0.312 ± 0.24 for the first, 0.104 ± 0.32 for the second.

Compared with H49E, H49D is higher in abundance fitness: -0.225 ± 0.26 for the first, 0.422 ± 0.32 for the second.

H49L and H49M are within error of each other in abundance fitness: -0.176 ± 0.2 for the first, -0.234 ± 0.42 for the second.

H49P and H49T are within error of each other in abundance fitness: -0.024 ± 0.26 for the first, 0.139 ± 0.26 for the second.

L37H and L37V are within error of each other in abundance fitness: -0.069 ± 0.33 for the first, -0.026 ± 0.11 for the second.

L37G and L37N are within error of each other in abundance fitness: 0.032 ± 0.11 for the first, -0.102 ± 0.31 for the second.

L37M and L37F are within error of each other in abundance fitness: -0.152 ± 0.16 for the first, -0.147 ± 0.35 for the second.

L37S and L37R are within error of each other in abundance fitness: 0.211 ± 0.11 for the first, 0.115 ± 0.095 for the second.

L37P and L37T are within error of each other in abundance fitness: -0.085 ± 0.15 for the first, 0.101 ± 0.13 for the second.

L37Y and L37C are within error of each other in abundance fitness: -0.237 ± 0.26 for the first, -0.094 ± 0.16 for the second.

Going from L37E to L37K, the abundance fitness rises from -0.566 ± 0.18 to -0.04 ± 0.2.

Going from L37W to V31G, the abundance fitness rises from -0.496 ± 0.13 to 0.069 ± 0.1.

V31A and V31S are within error of each other in abundance fitness: -0.046 ± 0.11 for the first, -0.145 ± 0.12 for the second.

V31D and V31I are within error of each other in abundance fitness: -0.157 ± 0.17 for the first, -0.205 ± 0.13 for the second.

Going from V31E to V31Q, the abundance fitness falls from 0.257 ± 0.12 to -0.315 ± 0.19.

V31Y and V31H are within error of each other in abundance fitness: -0.368 ± 0.2 for the first, 0.018 ± 0.21 for the second.

First: V31F
Second: V31C
The abundance fitness of the first is higher: 0.047 ± 0.15 for the first, -0.325 ± 0.2 for the second.

Compared with V31T, V31M is lower in abundance fitness: -0.023 ± 0.14 for the first, -0.383 ± 0.17 for the second.

V31N and V31P are within error of each other in abundance fitness: -0.193 ± 0.21 for the first, 0.106 ± 0.16 for the second.

First: V31R
Second: V31W
The abundance fitness of the first is higher: -0.27 ± 0.11 for the first, -0.566 ± 0.16 for the second.

V31L and V31K are within error of each other in abundance fitness: -0.104 ± 0.097 for the first, -0.314 ± 0.17 for the second.

L30T and L30N are within error of each other in abundance fitness: -0.222 ± 0.14 for the first, -0.047 ± 0.19 for the second.

L30S and L30R are within error of each other in abundance fitness: -0.06 ± 0.11 for the first, 0.085 ± 0.11 for the second.

L30Q and L30W are within error of each other in abundance fitness: 0.107 ± 0.16 for the first, -0.036 ± 0.13 for the second.

First: L30P
Second: L30Y
The abundance fitness of the first is lower: -0.414 ± 0.2 for the first, 0.193 ± 0.28 for the second.

L30V and E42V are within error of each other in abundance fitness: -0.135 ± 0.093 for the first, 0.068 ± 0.11 for the second.

E42D and E42S are within error of each other in abundance fitness: -0.013 ± 0.18 for the first, -0.241 ± 0.11 for the second.

E42I and E42T are within error of each other in abundance fitness: -0.019 ± 0.22 for the first, 0.014 ± 0.13 for the second.

Compared with E42L, E42F is lower in abundance fitness: -0.05 ± 0.1 for the first, -0.413 ± 0.18 for the second.

E42H and E42A are within error of each other in abundance fitness: -0.068 ± 0.23 for the first, -0.113 ± 0.11 for the second.

E42G and E42R are within error of each other in abundance fitness: -0.117 ± 0.1 for the first, -0.085 ± 0.11 for the second.

E42K and E42Q are within error of each other in abundance fitness: -0.563 ± 0.18 for the first, -0.224 ± 0.17 for the second.

Going from E42M to E42P, the abundance fitness falls from 0.138 ± 0.16 to -0.184 ± 0.13.

E42W and E42Y are within error of each other in abundance fitness: -0.318 ± 0.15 for the first, -0.076 ± 0.19 for the second.

A40R and A40K are within error of each other in abundance fitness: -0.072 ± 0.11 for the first, -0.218 ± 0.19 for the second.

A40D and A40G are within error of each other in abundance fitness: -0.243 ± 0.19 for the first, -0.168 ± 0.11 for the second.

A40T and A40H are within error of each other in abundance fitness: -0.088 ± 0.13 for the first, -0.094 ± 0.22 for the second.

Going from A40N to A40C, the abundance fitness falls from 0.187 ± 0.16 to -0.396 ± 0.16.

A40I and A40P are within error of each other in abundance fitness: 0.131 ± 0.16 for the first, -0.023 ± 0.15 for the second.

A40S and A40V are within error of each other in abundance fitness: 0.024 ± 0.11 for the first, -0.033 ± 0.1 for the second.

Compared with A40F, A40W is lower in abundance fitness: 0.3 ± 0.16 for the first, -0.404 ± 0.16 for the second.

A40M and A40E are within error of each other in abundance fitness: 0.017 ± 0.14 for the first, -0.274 ± 0.17 for the second.

A40Y and A40Q are within error of each other in abundance fitness: -0.23 ± 0.18 for the first, -0.273 ± 0.24 for the second.

Compared with P48H, P48I is higher in abundance fitness: -0.484 ± 0.23 for the first, 0.025 ± 0.19 for the second.

P48F and P48M are within error of each other in abundance fitness: 0.124 ± 0.23 for the first, 0.107 ± 0.14 for the second.

P48E and P48W are within error of each other in abundance fitness: -0.017 ± 0.12 for the first, 0.01 ± 0.14 for the second.

P48T and P48V are within error of each other in abundance fitness: -0.006 ± 0.15 for the first, -0.04 ± 0.1 for the second.

P48C and P48S are the same in abundance fitness: 0.016 ± 0.16 for the first, 0.016 ± 0.12 for the second.

P48Q and P48Y are within error of each other in abundance fitness: -0.087 ± 0.17 for the first, -0.022 ± 0.28 for the second.

Compared with P48N, C32D is lower in abundance fitness: 0.014 ± 0.24 for the first, -0.806 ± 0.27 for the second.

C32A and C32K are within error of each other in abundance fitness: -1 ± 0.18 for the first, -1.03 ± 0.26 for the second.

C32R and C32M are within error of each other in abundance fitness: -0.94 ± 0.13 for the first, -0.926 ± 0.2 for the second.

C32Q and C32P are within error of each other in abundance fitness: -0.982 ± 0.23 for the first, -0.885 ± 0.2 for the second.

C32L and C32Y are within error of each other in abundance fitness: -0.993 ± 0.14 for the first, -0.777 ± 0.15 for the second.

C32V and C32E are within error of each other in abundance fitness: -0.618 ± 0.14 for the first, -0.52 ± 0.16 for the second.

C32N and C32G are within error of each other in abundance fitness: -0.579 ± 0.29 for the first, -0.969 ± 0.14 for the second.

C32I and C32H are within error of each other in abundance fitness: -0.786 ± 0.3 for the first, -0.765 ± 0.32 for the second.

First: C32T
Second: S46D
The abundance fitness of the first is lower: -1.02 ± 0.2 for the first, -0.197 ± 0.14 for the second.

S46C and S46A are within error of each other in abundance fitness: 0.073 ± 0.2 for the first, -0.11 ± 0.12 for the second.

S46W and S46L are within error of each other in abundance fitness: -0.14 ± 0.13 for the first, 0.051 ± 0.12 for the second.

S46I and S46E are within error of each other in abundance fitness: 0.137 ± 0.24 for the first, -0.023 ± 0.12 for the second.

S46R and S46T are within error of each other in abundance fitness: -0.143 ± 0.094 for the first, 0.024 ± 0.15 for the second.

S46H and S46M are within error of each other in abundance fitness: -0.203 ± 0.22 for the first, -0.266 ± 0.15 for the second.

S46N and S46P are within error of each other in abundance fitness: -0.056 ± 0.3 for the first, -0.109 ± 0.13 for the second.

Compared with S46G, S46Y is lower in abundance fitness: -0.005 ± 0.1 for the first, -0.335 ± 0.16 for the second.

Going from S46Q to S46V, the abundance fitness rises from -0.331 ± 0.15 to 0.011 ± 0.1.

S46K and S46F are within error of each other in abundance fitness: -0.258 ± 0.18 for the first, -0.035 ± 0.17 for the second.

E38V and E38T are within error of each other in abundance fitness: -0.157 ± 0.12 for the first, -0.252 ± 0.17 for the second.

E38A and E38R are within error of each other in abundance fitness: -0.024 ± 0.13 for the first, -0.147 ± 0.1 for the second.

E38F and E38M are within error of each other in abundance fitness: -0.053 ± 0.17 for the first, 0.042 ± 0.16 for the second.

E38K and E38C are within error of each other in abundance fitness: -0.199 ± 0.22 for the first, -0.221 ± 0.17 for the second.

In the case of E38W, the abundance fitness is reported as -0.127 ± 0.15.
